Reference: US9994616B2, “c-Met protein agonist” (The University of Tokyo, priority 2013, dated 2018)
Where a SMILES comes first, the peptide text is derived from it. Bridges are numbered along the chain shown (N, C = ends). Roman numbers before positions name the chains, in order. Where no end group is shown, it is not given here. [ ]: non-standard residue; d: D form. NMeW = CN[C@@H](Cc1c[nH]c2ccccc12)C(=O)O; NMeH = CN[C@@H](Cc1c[nH]cn1)C(=O)O; NMeR = CN[C@@H](CCCNC(=N)N)C(=O)O; NMeT = CN[C@H](C(=O)O)[C@@H](C)O; NMeE = CN[C@@H](CCC(=O)O)C(=O)O; NMeQ = CN[C@@H](CCC(N)=O)C(=O)O; NMeD = CN[C@@H](CC(=O)O)C(=O)O; NMeN = CN[C@@H](CC(N)=O)C(=O)O; NMeL = CN[C@@H](CC(C)C)C(=O)O; NMeV = CN[C@H](C(=O)O)C(C)C; βAla = NCCC(=O)O

Tests used:
[1] = biological target: c-Met-Fc (Homo sapiens, UniProt P08581); assay: Binding ability by surface plasmon resonance (SPR, Biacore); settings: for kon: read-out: ka
Chain of c-Met-Fc (P08581 with tags, fused parts or gaps limits assumed): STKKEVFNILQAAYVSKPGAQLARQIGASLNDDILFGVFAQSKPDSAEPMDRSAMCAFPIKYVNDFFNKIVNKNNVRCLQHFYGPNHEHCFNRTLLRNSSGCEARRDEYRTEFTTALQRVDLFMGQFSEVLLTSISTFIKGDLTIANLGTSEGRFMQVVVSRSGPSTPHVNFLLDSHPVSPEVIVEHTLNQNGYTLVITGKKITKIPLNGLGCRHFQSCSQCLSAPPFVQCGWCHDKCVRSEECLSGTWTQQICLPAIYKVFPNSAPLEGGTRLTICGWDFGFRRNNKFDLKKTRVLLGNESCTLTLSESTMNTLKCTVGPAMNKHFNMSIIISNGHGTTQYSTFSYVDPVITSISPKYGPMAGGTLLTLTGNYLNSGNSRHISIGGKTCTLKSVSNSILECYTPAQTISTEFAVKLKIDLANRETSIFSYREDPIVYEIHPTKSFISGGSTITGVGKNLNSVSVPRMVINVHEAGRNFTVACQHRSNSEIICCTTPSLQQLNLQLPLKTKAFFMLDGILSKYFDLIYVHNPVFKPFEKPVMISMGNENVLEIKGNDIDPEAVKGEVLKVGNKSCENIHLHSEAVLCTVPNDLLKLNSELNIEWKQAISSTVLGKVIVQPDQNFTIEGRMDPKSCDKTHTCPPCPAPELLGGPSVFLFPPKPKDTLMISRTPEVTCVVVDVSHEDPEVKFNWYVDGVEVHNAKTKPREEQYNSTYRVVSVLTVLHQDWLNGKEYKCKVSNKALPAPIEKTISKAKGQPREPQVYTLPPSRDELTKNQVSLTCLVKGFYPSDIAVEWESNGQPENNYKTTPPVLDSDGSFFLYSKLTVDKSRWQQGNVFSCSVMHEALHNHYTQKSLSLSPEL
Chain of c-Met-Fc (P08581 25-307 limits assumed): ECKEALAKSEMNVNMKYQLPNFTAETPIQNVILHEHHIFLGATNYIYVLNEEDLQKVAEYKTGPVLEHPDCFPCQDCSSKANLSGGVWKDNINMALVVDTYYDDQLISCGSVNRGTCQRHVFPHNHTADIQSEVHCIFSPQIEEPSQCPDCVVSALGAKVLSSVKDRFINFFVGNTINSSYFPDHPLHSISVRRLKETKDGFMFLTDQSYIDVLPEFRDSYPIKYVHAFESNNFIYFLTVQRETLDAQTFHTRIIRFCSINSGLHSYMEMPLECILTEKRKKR
Description: Binding ability of the thioether macrocyclic peptide was evaluated by SPR measurement using Biacore (GE Healthcare).
As a sensor chip, Sensor Chip CM5 was used and an anti-IgG antibody was immobilized on a measurement lane and a control lane by using Human Antibody Capture Kit.
On the measurement lane was immobilized c-Met-Fc, while on the control lane was immobilized Fc protein.
As a running buffer, HBS-EP+ buffer containing 0.1% DMSO was used and a dissociation constant of the thioether macrocyclic peptide was calculated at 5 different concentrations by using the single-kinetics method.

[2] = biological target: T1, c-Met (Homo sapiens, UniProt P08581); assay: Activity of dimeric peptide by ELISA (c-Met phosphorylation level in EHMES-1 cells); format: cell-based; settings: for Activity (c-Met phosphorylation level by ELISA): Table 12, EHMES-1 cells, 10 minutes stimulation; for c-Met phosphorylation: Table 13
T1 construct: endogenous in cells; host or cells: EHMES-1 (human mesothelioma)
T1 sequence (P08581 25-1390): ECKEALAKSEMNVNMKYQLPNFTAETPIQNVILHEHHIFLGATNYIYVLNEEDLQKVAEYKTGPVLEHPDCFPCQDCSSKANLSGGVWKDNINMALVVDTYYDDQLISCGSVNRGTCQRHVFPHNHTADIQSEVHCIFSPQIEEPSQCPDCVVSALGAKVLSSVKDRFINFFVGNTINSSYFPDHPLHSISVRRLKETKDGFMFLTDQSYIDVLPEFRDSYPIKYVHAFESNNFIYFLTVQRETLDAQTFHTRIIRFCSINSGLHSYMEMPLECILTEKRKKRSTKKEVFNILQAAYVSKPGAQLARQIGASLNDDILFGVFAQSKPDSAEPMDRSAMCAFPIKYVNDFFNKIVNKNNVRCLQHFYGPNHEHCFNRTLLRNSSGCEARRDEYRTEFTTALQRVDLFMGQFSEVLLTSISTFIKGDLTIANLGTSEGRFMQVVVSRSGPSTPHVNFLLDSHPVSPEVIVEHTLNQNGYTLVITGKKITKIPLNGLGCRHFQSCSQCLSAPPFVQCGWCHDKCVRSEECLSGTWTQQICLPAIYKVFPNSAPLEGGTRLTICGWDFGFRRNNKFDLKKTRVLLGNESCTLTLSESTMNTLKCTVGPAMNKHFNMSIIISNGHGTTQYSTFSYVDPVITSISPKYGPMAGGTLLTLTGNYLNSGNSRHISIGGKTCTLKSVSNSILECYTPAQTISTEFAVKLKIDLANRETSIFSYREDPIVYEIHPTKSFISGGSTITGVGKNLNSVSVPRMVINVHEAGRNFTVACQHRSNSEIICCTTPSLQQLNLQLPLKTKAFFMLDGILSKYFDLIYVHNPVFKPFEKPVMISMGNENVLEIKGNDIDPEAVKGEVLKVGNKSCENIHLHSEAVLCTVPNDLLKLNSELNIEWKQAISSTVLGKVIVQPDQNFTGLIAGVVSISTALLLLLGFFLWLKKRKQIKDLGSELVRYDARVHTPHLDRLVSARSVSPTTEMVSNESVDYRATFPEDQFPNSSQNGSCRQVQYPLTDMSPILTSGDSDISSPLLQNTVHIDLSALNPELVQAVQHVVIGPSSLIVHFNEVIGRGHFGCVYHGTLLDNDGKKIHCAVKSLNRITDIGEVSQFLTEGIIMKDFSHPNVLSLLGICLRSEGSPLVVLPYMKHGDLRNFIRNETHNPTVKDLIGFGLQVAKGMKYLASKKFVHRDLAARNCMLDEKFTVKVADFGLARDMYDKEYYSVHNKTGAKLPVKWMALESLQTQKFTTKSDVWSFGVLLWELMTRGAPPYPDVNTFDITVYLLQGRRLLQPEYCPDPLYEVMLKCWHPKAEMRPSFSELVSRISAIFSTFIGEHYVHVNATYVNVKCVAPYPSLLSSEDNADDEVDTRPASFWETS
Description: Each dimeric peptide was added to human EHMES-1 cells and the mixture was incubated for 10 minutes to stimulate the cells.
As a control experiment, a recombinant human HGF protein was added and the mixture was incubated for 10 minutes to stimulate cells.
A phosphorylation level of c-Met was quantitatively analyzed using ELISA.

[3] = Stability of thioether macrocyclic peptide in human serum pool (LC-MS); format: in vitro ADME; settings: for remaining at 1 h, 1 μM: Table 8, human serum pool, 37° C.; for Stability in serum (in words): human serum
Description: A DMSO solution of the thioether macrocyclic peptide to be evaluated was dissolved in a human serum pool to give a concentration of 1 μM. The human serum pool containing the thioether macrocyclic peptide thus prepared was incubated at 37° C.
After an elapse of the evaluation time, the human serum pool containing the thioether macrocyclic peptide was placed on ice and a peptide serving as an internal standard was added and mixed to give a concentration of 1 μM. The resulting mixture was added to a solid-phase extraction column (Hyper Sep SPE column, Thermo Scientific), washed with a 5% aqueous acetonitrile solution containing 0.1% TFA, and then purified by eluting with a 70% aqueous acetonitrile solution containing 0.1% TFA.
The molecular weight of the purified product was analyzed using LC-MS and the cleavage site in the serum was identified. In addition, the thioether macrocyclic peptide which had remained without being cleaved was quantitatively determined by comparing an amount relative to the internal standard at every incubation time.

[4] = Table 11, monomer and dimeric peptides

| Compound | kon ([1]; Table 8, c-Met-Fc) | kd ([1]; Table 8, c-Met-Fc) | Kd ([1]; Table 8, c-Met-Fc) | ka ([1]; Table 8, c-Met-Fc) | also measured |
| --- | --- | --- | --- | --- | --- |
| D5-4 Bis-MAL-PEG3: dimeric peptide: two D5-4 macrocycles linked through C-terminal Cys by Bis-MAL-PEG3 linker (peptide 1 {CH2CO}-[dY]WYYAWDQTYKAFPCG; peptide 2 {CH2CO}-[dY]WYYAWDQTYKAFPCG; thioether I:N-I:15, II:N-II:15; not fully specified (C-terminus); also: dimer: two chains joined by Bis-MAL-PEG3 through an added C-terminal Cys not in the letters) |  |  |  |  | ka [1, 4]: 0.12 10^6 M^−1s^−1; kd [1, 4]: 0.054 10^−2 s^−1; Activity (c-Met phosphorylation level by ELISA) [2]: High; c-Met phosphorylation [2]: Promote |
| CC(C)C[C@@H]1NC(=O)[C@H](CC(N)=O)NC(=O)[C@H](Cc2c[nH]c3ccccc23)NC(=O)[C@H](C(C)C)NC(=O)[C@H](CCC(=O)O)NC(=O)[C@H](Cc2c[nH]cn2)NC(=O)[C@H]([C@@H](C)O)N(C)C(=O)[C@H](CCCNC(=N)N)NC(=O)[C@H](CCCNC(=N)N)NC(=O)[C@H](CC(N)=O)NC(=O)[C@H](Cc2ccccc2)NC(=O)[C@H](CCC(N)=O)NC(=O)[C@H](CCCNC(=N)N)NC(=O)[C@@H](Cc2ccc(O)cc2)NC(=O)CSC[C@@H](C(=O)NCC(N)=O)NC(=O)[C@H](CC(=O)O)NC1=O [Peptide N8] ({CH2CO}-[dY]RQFNRR[NMeT]HEVWNLDCG-NH2; thioether N-16; C-terminus assumed) | 27000 M⁻¹ s⁻¹ |  |  |  | remaining at 1 h, 1 μM [3]: 81%; Stability in serum (in words) [3]: drastically improved |
| CC(C)C[C@@H]1NC(=O)[C@H](CC(N)=O)NC(=O)[C@H](Cc2c[nH]c3ccccc23)NC(=O)[C@H](C(C)C)N(C)C(=O)[C@H](CCC(=O)O)NC(=O)[C@H](Cc2c[nH]cn2)NC(=O)[C@H]([C@@H](C)O)NC(=O)[C@H](CCCNC(=N)N)NC(=O)[C@H](CCCNC(=N)N)NC(=O)[C@H](CC(N)=O)NC(=O)[C@H](Cc2ccccc2)NC(=O)[C@H](CCC(N)=O)NC(=O)[C@H](CCCNC(=N)N)NC(=O)[C@@H](Cc2ccc(O)cc2)NC(=O)CSC[C@@H](C(=O)NCC(N)=O)NC(=O)[C@H](CC(=O)O)NC1=O [Peptide N11] ({CH2CO}-[dY]RQFNRRTHE[NMeV]WNLDCG-NH2; thioether N-16; C-terminus assumed) | 15000 M⁻¹ s⁻¹ |  |  |  |  |
| D4-3 Bis-MAL-PEG3: dimeric peptide: two D4-3 macrocycles linked through C-terminal Cys by Bis-MAL-PEG3 linker ({CH2CO}-[dY]RQFNRRTHEVWNLDCGC; thioether N-16; not fully specified (residue 18); also: dimer: two copies joined by Bis-MAL-PEG3, linker at 18 via Bis-MAL-PEG3, other end not in the chain) |  |  |  |  | ka [1, 4]: 1.1 10^6 M^−1s^−1; kd [1, 4]: 0.070 10^−2 s^−1; Activity (c-Met phosphorylation level by ELISA) [2]: Low; c-Met phosphorylation [2]: Promote |
| CC(C)C[C@@H]1NC(=O)[C@H](CC(N)=O)NC(=O)[C@H](Cc2c[nH]c3ccccc23)NC(=O)[C@H](C(C)C)NC(=O)[C@H](CCC(=O)O)NC(=O)[C@H](Cc2c[nH]cn2)NC(=O)[C@H]([C@@H](C)O)NC(=O)[C@H](CCCNC(=N)N)NC(=O)[C@H](CCCNC(=N)N)NC(=O)[C@H](CC(N)=O)NC(=O)[C@H](Cc2ccccc2)NC(=O)[C@H](CCC(N)=O)NC(=O)[C@H](CCCNC(=N)N)NC(=O)[C@@H](Cc2ccc(O)cc2)NC(=O)CSC[C@@H](C(=O)NCC(N)=O)NC(=O)[C@H](CC(=O)O)N(C)C1=O [Peptide N15] ({CH2CO}-[dY]RQFNRRTHEVWNL[NMeD]CG-NH2; thioether N-16; C-terminus assumed) | 300000 M⁻¹ s⁻¹ |  |  |  |  |
| N5: N-methylated peptide of D4-3 ({CH2CO}-[dY]RQF[NMeN]RRTHEVWNLDC-NH2; thioether N-16; also: bridge 1-16 listed as disulfide) [Peptide N5] |  | 0.39 10^−2 s^−1 | 200 nM | 0.19 10^5 M^−1s^−1 |  |
| N3: N-methylated peptide of D4-3 ({CH2CO}-[dY]R[NMeQ]FNRRTHEVWNLDC-NH2; thioether N-16; also: bridge 1-16 listed as disulfide) [Peptide N3] |  | 0.31 10^−2 s^−1 | 120 nM | 0.27 10^5 M^−1s^−1 |  |
| N14: N-methylated peptide of D4-3 ({CH2CO}-[dY]RQFNRRTHEVWN[NMeL]DC-NH2; thioether N-16; also: bridge 1-16 listed as disulfide) [Peptide N14] |  | 0.59 10^−2 s^−1 | 290 nM | 0.21 10^5 M^−1s^−1 |  |
| N9: N-methylated peptide of D4-3 ({CH2CO}-[dY]RQFNRRT[NMeH]EVWNLDC-NH2; thioether N-16; also: bridge 1-16 listed as disulfide) [Peptide N9] |  |  |  |  | KD ([1]; Table 8, c-Met-Fc): Not binding |
| N10: N-methylated peptide of D4-3 ({CH2CO}-[dY]RQFNRRTH[NMeE]VWNLDC-NH2; thioether N-16; also: bridge 1-16 listed as disulfide) [Peptide N10] |  | 0.75 10^−2 s^−1 | 300 nM | 0.25 10^5 M^−1s^−1 |  |
| L5-2 Bis-MAL-PEG11: dimeric peptide: two L5-2 macrocycles linked through C-terminal Cys by Bis-MAL-PEG11 linker ({CH2CO}-YISWNEFNSPNWRFITCG[βAla]C-NH2; thioether N-17; not fully specified (residue 20); also: dimer: two copies joined by Bis-MAL-PEG11, linker at 20 via Bis-MAL-PEG11, other end not in the chain) |  |  |  |  | ka [1, 4]: 0.098 10^6 M^−1s^−1; kd [1, 4]: 0.031 10^−2 s^−1; Activity (c-Met phosphorylation level by ELISA) [2]: Low; c-Met phosphorylation [2]: Promote |

Now from value to compound, other results behind:

| kon ([1]; Table 8, c-Met-Fc) | Compound | kd ([1]; Table 8, c-Met-Fc) | Kd ([1]; Table 8, c-Met-Fc) | ka ([1]; Table 8, c-Met-Fc) | also measured |
| --- | --- | --- | --- | --- | --- |
| 53000 M⁻¹ s⁻¹ | CC(C)C[C@@H]1NC(=O)[C@H](CC(N)=O)NC(=O)[C@H](Cc2c[nH]c3ccccc23)NC(=O)[C@H](C(C)C)NC(=O)[C@H](CCC(=O)O)NC(=O)[C@H](Cc2c[nH]cn2)NC(=O)[C@H]([C@@H](C)O)NC(=O)[C@H](CCCNC(=N)N)N(C)C(=O)[C@H](CCCNC(=N)N)NC(=O)[C@H](CC(N)=O)NC(=O)[C@H](Cc2ccccc2)NC(=O)[C@H](CCC(N)=O)NC(=O)[C@H](CCCNC(=N)N)NC(=O)[C@@H](Cc2ccc(O)cc2)NC(=O)CSC[C@@H](C(=O)NCC(N)=O)NC(=O)[C@H](CC(=O)O)NC1=O [Peptide N7] ({CH2CO}-[dY]RQFNR[NMeR]THEVWNLDCG-NH2; thioether N-16; C-terminus assumed) | 6.9 10^−2 s^−1 |  |  | Binding ability (in words) [1]: do not show marked deterioration; remaining at 1 h, 1 μM [3]: 92%; Stability in serum (in words) [3]: drastically improved |
| 55000 M⁻¹ s⁻¹ | CC(C)C[C@@H]1NC(=O)[C@H](CC(N)=O)NC(=O)[C@H](Cc2c[nH]c3ccccc23)N(C)C(=O)[C@H](C(C)C)NC(=O)[C@H](CCC(=O)O)NC(=O)[C@H](Cc2c[nH]cn2)NC(=O)[C@H]([C@@H](C)O)NC(=O)[C@H](CCCNC(=N)N)NC(=O)[C@H](CCCNC(=N)N)NC(=O)[C@H](CC(N)=O)NC(=O)[C@H](Cc2ccccc2)NC(=O)[C@H](CCC(N)=O)NC(=O)[C@H](CCCNC(=N)N)NC(=O)[C@@H](Cc2ccc(O)cc2)NC(=O)CSC[C@@H](C(=O)NCC(N)=O)NC(=O)[C@H](CC(=O)O)NC1=O [Peptide N12] ({CH2CO}-[dY]RQFNRRTHEV[NMeW]NLDCG-NH2; thioether N-16; C-terminus assumed) |  |  |  |  |
